Reference: US5663067

Key:
[1] = tested on: T1, SapI restriction endonuclease (recombinant) (Saccharopolyspora sp.); test: cleavage_in_vitro; details: supernatant of lysate assayed on lambda DNA; purified enzyme also assayed on lambda DNA
T1 sequence: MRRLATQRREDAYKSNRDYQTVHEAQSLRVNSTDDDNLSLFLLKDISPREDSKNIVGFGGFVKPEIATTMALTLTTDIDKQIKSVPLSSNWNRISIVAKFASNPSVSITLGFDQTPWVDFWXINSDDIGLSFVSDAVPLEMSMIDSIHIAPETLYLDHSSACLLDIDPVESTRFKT

[2] = tested on: T2, SapI M2 methylase (Saccharopolyspora sp.); test: cell_activity; details: M1 and M2 co-expressed in E. coli from pACYC184-SapIM1-M2; SapI site protection
T2 sequence: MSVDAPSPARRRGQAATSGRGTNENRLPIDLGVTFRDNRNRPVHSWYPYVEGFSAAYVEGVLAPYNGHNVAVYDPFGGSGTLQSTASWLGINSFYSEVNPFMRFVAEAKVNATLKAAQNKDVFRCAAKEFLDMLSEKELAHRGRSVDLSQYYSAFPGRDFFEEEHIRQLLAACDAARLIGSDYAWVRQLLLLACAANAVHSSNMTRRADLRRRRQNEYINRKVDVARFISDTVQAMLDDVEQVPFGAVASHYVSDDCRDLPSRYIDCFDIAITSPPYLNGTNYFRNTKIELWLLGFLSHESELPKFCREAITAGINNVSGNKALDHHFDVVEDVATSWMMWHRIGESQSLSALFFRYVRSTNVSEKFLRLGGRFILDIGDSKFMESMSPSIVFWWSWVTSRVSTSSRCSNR

[3] = tested on: T3, SapI M1 methylase (Saccharopolyspora sp.); test: cell_activity; details: M1 and M2 co-expressed in E. coli from pACYC184-SapIM1-M2; SapI site protection
T3 sequence: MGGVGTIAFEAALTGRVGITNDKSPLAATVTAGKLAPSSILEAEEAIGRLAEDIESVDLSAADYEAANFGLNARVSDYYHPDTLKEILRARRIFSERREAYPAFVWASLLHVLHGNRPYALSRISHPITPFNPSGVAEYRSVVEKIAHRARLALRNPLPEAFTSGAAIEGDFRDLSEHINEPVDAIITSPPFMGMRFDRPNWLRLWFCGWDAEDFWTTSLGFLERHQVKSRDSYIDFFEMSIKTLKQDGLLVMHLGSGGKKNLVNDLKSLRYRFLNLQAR

Substance	activity (units per g wet cells) [1]	activity (% of DNA resistant to SapI) [2]	activity (% of DNA resistant to SapI) [3]
lambda DNA	20000		
pUC19 plasmid DNA (one SapI site)		70	70
